Experimental data from patent US20230250181A1 (published 2023).

What was measured:
[1] = molecular target: T1, recombinant biotinylated PD1/CD279 protein from Biolegend (789406) (UniProt Q15116 25-167, limits assumed, biotinylated); test: ELISA; antibody coated on plate, biotinylated PD-1 titrated, streptavidin-HRP
T1 construct: also called PD1/CD279 ligand
Description: The interaction of the unmodified and of conjugated anti-PD1 antibodies with PD-1 (CD279) were measured by ELISA assay. For these studies, Corning high-binding half-area plates (Fisher Scientific, Reinach, Switzerland) were coated overnight at 4° C. with 25 μl of unmodified or conjugated anti-PD1 antibodies at 2.5 μg/ml in PBS. Plates were then washed four times with 100 μl of PBS-0.02% Tween20. Plate surfaces were blocked with 25 μl of PBS-0.02% Tween20-1% BSA at 37° C. during 1 h. Plates were then washed four times with 100 μl of PBS-0.02% Tween20. […] Plates were then washed four times with 100 μl of PBS-0.02% Tween20. Twenty-five microliters of Streptavidin-Horseradish peroxidase (#RABHRP3, Merck, Buchs, Switzerland) diluted at 1:500 in PBS-0.02% Tween20-0.1% BSA were added to each well and incubated at Room Temperature during 30 min. Plates were then washed four times with 100 μl of PBS-0.02% Tween20. Fifty microliters of TMB substrate reagent (#CL07, Merck, Buchs, Switzerland) were added to each well and incubated at 37° C. during 5 min. After 5 min at 37° C., Horseradish peroxidase reaction was stopped by adding 50 μl/well of 0.5M H₂SO₄ stop solution. ELISA signal was then measured at 450 nm on an EnSpire plate reader from Perkin Elmer (Schwerzenbach, Switzerland).

[2] = molecular target: T2, recombinant Human Fc gamma RI/CD64 Protein (R&D systems, 1257-FC-050, CF) (human, UniProt P12314 16-288); test: ELISA; antibody coated on plate, recombinant receptor titrated
T2 construct: Bought protein; also called FcγRI; FcgRI
T2 sequence (P12314 16-288 limits assumed): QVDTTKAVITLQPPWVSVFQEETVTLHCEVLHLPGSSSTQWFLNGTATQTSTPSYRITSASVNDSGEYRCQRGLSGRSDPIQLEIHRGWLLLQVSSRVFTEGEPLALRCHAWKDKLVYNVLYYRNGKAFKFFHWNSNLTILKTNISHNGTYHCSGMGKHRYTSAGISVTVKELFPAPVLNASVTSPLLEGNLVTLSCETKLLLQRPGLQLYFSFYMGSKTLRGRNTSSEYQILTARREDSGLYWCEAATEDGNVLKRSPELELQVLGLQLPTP
Description: (§1) The interaction of the unmodified and of conjugated anti-PD1 antibodies with human Fc gamma receptors I (FcγRI/CD64), with human Fc gamma receptors Ha (FcγRIIa/CD32a), with inhibitory human Fc gamma receptors IIb (FcγRIIb/CD32b), and with human Fc gamma receptors III FcγR3a/CD16 were measured by ELISA. Briefly, Corning high-binding half-area plates (Fisher Scientific, Reinach, Switzerland) were coated overnight at 4° C. with 25 μl of unmodified and of conjugated anti-PD1 antibodies at 2.5 μg/ml in PBS. Plates were then washed four times with 100 μl of PBS-0.02% Tween20. Plates surfaces were blocked with 25 μl of PBS-0.02% Tween20-1% BSA at 37° C. during 1 h. Plates were then washed four times with 100 μl of PBS-0.02% Tween20. Then twenty-five microliters of either recombinant Human Fc gamma RI/CD64 Protein (R&D systems, 1257-FC-050, CF), recombinant Human Fc gamma RIIA/CD32a (H167) Protein (R&D systems, 9595-CD-050, CF), recombinant Human Fc gamma RIIB/CD32b Avi-tag Protein (R&D systems, AVI1875-050, CF), or recombinant Human Fc gamma RIIIA/CD16a Protein (R&D systems, 4325-FC-050; CF) were added in five-fold serial dilutions ranging from 1000 nM to 0.001 nM into PBS-0.02% Tween20-0.1% BSA and incubated at 37° C. during 2 h. […] ELISA signal was then measured at 450 nm on an EnSpire plate reader from Perkin Elmer (Schwerzenbach, Switzerland). […]

[3] = molecular target: T3, recombinant Human Fc gamma RIIIA/CD16a Protein (R&D systems, 4325-FC-050; CF) (human, UniProt P08637 17-208, limits assumed); test: as above
T3 construct: Bought protein; also called FcγRIIIa; FcgRIIIa
T3 sequence (P08637 17-208 limits assumed): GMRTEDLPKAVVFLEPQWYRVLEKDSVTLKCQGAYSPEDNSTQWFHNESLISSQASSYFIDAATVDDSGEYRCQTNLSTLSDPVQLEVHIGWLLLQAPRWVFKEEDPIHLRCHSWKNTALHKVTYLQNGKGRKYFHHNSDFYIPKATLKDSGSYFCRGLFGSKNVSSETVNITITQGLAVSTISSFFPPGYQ
Description: as §1

[4] = molecular target: T4, recombinant biotinylated human FcRn (human, UniProt P55899 24-297, limits assumed, biotinylated); test: AlphaLISA competition at pH 6; test molecule competes with human IgG acceptor beads for biotinylated human FcRn
T4 construct: also called human neonatal Fc receptor
T4 sequence (P55899 24-297 limits assumed, form in doubt): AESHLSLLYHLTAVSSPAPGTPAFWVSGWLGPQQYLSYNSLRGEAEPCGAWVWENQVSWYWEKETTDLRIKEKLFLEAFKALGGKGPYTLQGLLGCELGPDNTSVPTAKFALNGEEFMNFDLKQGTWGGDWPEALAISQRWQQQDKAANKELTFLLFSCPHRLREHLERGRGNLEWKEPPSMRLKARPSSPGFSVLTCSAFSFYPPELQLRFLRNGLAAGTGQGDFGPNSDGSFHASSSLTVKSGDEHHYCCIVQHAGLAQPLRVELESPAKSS
Description: The interaction of the unmodified and of conjugated anti-PD1 antibodies with the human neonatal Fc receptor (FcRn) at pH 6 was measured using the AlphaLISA® Human FcRn Binding Kit (AL3095C) from Perkin Elmer (Schwerzenbach, Switzerland).
After 90 min at 23° C. in the dark, AlphaLISA® signal was measured on an EnSpire plate reader (Excitation at 680 nm, Emission at 615 nm) from Perkin Elmer (Schwerzenbach, Switzerland).

T1 sequence (Q15116 25-167 limits assumed): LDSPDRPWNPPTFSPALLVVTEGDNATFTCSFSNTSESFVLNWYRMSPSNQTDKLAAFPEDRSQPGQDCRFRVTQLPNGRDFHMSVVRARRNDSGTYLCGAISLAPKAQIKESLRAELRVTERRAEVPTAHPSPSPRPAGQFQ

B1: Composition K (antibody)
VH: QVQLVQSGAEVKKPGASVKVSCKASGYTFTSYYMYWVRQAPGQGLEWMGGVNPSNGGTNFNEKFKSRVTITADKSTSTAYMELSSLRSEDTAVYYCARRDYRYDMGFDYWGQGTTVTVSS
VL: EIVLTQSPATLSLSPGERATISCRASKGVSTSGYSYLHWYQQKPGQAPRLLIYLASYLESGVPARFSGSGSGTDFTLTISSLEPEDFATYYCQHSRELPLTFGTGTKVEIK
chain: APTSSSTKKTQLQLEHLLLDLQXILNGINNYKNPKLTRXLXYKFYXPKKATELKHLQCLEEELKPLEEVLXLAQSKNFHLRPRDLISNINVIVLELKGSETTFXCEYADETATIVEFLNRWITFSQSIISTLT
modifications: not fully specified; Composition AB: Nle at 23, 39, 46; Hse at 41, 71, 104; ~0.5 kDa PEG on Y45; 0.5 kDa PEG capped with azide on F42Y, reacted with DBCO on K288 (EU numbering) of the antibody's Fc region
notes: Immunocytokine; linker at K288 of the Fc region
- Kd [1]: 41 µM

B2: Pembrolizumab (antibody, human IgG4 S228P, kappa)
heavy: not shown
light: EIVLTQSPATLSLSPGERATLSCRASKGVSTSGYSYLHWYQQKPGQAPRLLIYLASYLESGVPARFSGSGSGTDFTLTISSLEPEDFAVYYCQHSRDLPLTFGGGTKVEIKRTVAAPSVFIFPPSDEQLKSGTASVVCLLNNFYPREAKVQWKVDNALQSGNSQESVTEQDSKDSTYSLSSTLTLSKADYEKHKVYACEVTHQGLSSPVTKSFNRGEC
notes: also called Lambrolizumab
- Kd [2]: 0.000488 µM
- Kd [3]: 0.289 µM
- Kd [4]: 0.00731 µM

B3: LZM-009 (antibody, V domains shown)
VH: B1 VH
VL: B1 VL
- Kd [1]: 35 µM

B4: Composition H (antibody)
VH: B1 VH
VL: B1 VL
chain: B1 chain
modifications: not fully specified; Composition AB: Nle at 23, 39, 46; Hse at 41, 71, 104; ~0.5 kDa PEG on Y45; 0.5 kDa PEG capped with azide on F42Y, reacted with DBCO on K248 (EU numbering) of the antibody's Fc region
notes: Immunocytokine; linker at K248 of the Fc region, DAR 1; also called LZM-009 conjugated to Composition AB, DAR 1, K248
- Kd [1]: 37 µM

B5: Composition J (antibody)
VH: B1 VH
VL: B1 VL
chain: B1 chain
modifications: not fully specified; Composition AB: Nle at 23, 39, 46; Hse at 41, 71, 104; ~0.5 kDa PEG on Y45; 0.5 kDa PEG capped with azide on F42Y, reacted with DBCO on K288 (EU numbering) of the antibody's Fc region
notes: Immunocytokine; linker at K288 of the Fc region, DAR 1; also called LZM-009 conjugated to Composition AB, DAR 1, K288
- Kd [1]: 27 µM
